Biological target: biotinylated Cul3/Rbx1 (UniProt Q13618 1-768; P62877 1-108, biotin (BirA biotinylation of the Avi tag))
Experiment: AlphaScreen or HTRF; 30 nM His-tagged Keap1 (35-235) incubated with CDDO or DMSO 2.5 h at 37°C, then 30 nM biotinylated Cul3/Rbx1 1.5 h at room temperature; nickel chelate donor beads and streptavidin acceptor beads
Settings: both partners purified

biotinylated Cul3/Rbx1, sequence (Q13618 whole entry, chain 1 of 2): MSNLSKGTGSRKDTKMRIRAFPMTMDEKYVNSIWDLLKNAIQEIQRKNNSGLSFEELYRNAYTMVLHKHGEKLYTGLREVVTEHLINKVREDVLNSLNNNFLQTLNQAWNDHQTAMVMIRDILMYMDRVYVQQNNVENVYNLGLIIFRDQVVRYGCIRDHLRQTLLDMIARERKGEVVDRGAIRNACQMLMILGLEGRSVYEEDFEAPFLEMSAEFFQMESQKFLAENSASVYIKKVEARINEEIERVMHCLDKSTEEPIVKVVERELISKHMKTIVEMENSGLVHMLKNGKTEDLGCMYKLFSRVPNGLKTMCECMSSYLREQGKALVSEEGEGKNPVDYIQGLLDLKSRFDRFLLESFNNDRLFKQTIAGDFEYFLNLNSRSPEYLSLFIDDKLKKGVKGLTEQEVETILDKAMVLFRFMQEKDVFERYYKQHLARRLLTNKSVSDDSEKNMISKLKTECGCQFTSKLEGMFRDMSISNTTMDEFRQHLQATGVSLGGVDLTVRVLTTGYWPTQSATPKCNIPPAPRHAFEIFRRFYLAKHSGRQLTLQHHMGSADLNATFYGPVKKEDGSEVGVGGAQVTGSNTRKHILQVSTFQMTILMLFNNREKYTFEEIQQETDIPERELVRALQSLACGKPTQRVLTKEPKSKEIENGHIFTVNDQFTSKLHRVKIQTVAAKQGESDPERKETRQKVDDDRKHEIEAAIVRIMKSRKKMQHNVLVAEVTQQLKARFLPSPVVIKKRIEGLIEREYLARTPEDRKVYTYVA
biotinylated Cul3/Rbx1, sequence (P62877 whole entry, chain 2 of 2): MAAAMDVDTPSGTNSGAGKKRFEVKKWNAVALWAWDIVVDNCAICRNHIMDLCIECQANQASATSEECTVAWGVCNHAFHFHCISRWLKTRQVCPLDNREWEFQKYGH

binding result: binds
B1: Keap1 BTB with the first ~50 residues of the BACK domain (residues 35-235), C151S (domain or fragment, human, UniProt Q14145 35-235, looked up)
chain: STECKAEVTPSQHGNRTFSYTLEDHTKQAFGIMNELRLSQQLCDVTLQVKYQDAPAAQFMAHKVVLASSSPVFKAMFTNGLREQGMEVVSIEGIHPKVMERLIEFAYTASISMGEKSVLHVMNGAVMYQIDSVVRACSDFLVQQLDPSNAIGIANFAEQIGCVELHQRAREYIYMHFGEVAKQEEFFNLSHCQLVTLISRD

— publication PMC4045772 (PLoS ONE, 2014)
